Data reported in patent US20250257149A1 (GLYCOTOPE, published 2025).

Assays:
[1] = molecular target: T1, MUC1 tandem repeat peptide APPAHGVTSAPD-T(X)-RPAPGSTAPPAHGVTSA with GalNAcalpha (Tn) at T (human, GalNAcalpha (Tn) O-glycan on the threonine of PDTR; biotinylated); assay: TA-MUC1 antigen ELISA, biotinylated glycopeptide
T1 construct: also called Tn-PDTR MUC1 peptide; Tn-MUC1 peptide
T1 peptide: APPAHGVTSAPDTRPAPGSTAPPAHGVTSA

[2] = molecular target: T2, MUC1 tandem repeat peptide APPAHGVTSAPD-T(X)-RPAPGSTAPPAHGVTSA with sialylated GalNAcalpha (sTn) at T (human, sialylated GalNAcalpha (sTn) O-glycan on the threonine of PDTR; biotinylated); assay: TA-MUC1 antigen ELISA, biotinylated glycopeptide
T2 construct: also called sTn-PDTR MUC1 peptide
T2 peptide: T1 peptide

[3] = molecular target: T3, MUC1 tandem repeat peptide APPAHGVTSAPD-T(X)-RPAPGSTAPPAHGVTSA with Galβ1-3GalNAcalpha (TF) at T (human, Galβ1-3GalNAcalpha (TF) O-glycan on the threonine of PDTR; biotinylated); assay: TA-MUC1 antigen ELISA, biotinylated glycopeptide
T3 construct: also called TF-PDTR MUC1 peptide; TF-MUC1 peptide
T3 peptide: T1 peptide

[4] = molecular target: T4, MUC1 tandem repeat peptide APPAHGVTSAPD-T(X)-RPAPGSTAPPAHGVTSA with sialylated TF (sTF) at T (human, not fully specified; sialylated TF (sTF) O-glycan on the threonine of PDTR; biotinylated); assay: TA-MUC1 antigen ELISA, biotinylated glycopeptide
T4 construct: also called sTF-PDTR MUC1 peptide
T4 peptide: T1 peptide

[5] = molecular target: T1, MUC1 tandem repeat peptide …; assay: SPR (Biacore), biotinylated peptide on streptavidin chip
Protocol: (§1) Binding of the Fab-deglycosylated version of the MUC1-specific antibody PankoMab (PM-N54Q) on TA-MUC-1 derived glycosylated peptide was evaluated by surface plasmon resonance analysis (Biacore). A streptavidin sensor chip was coated with biotinylated TA-MUC1 peptide (Tn glycosylated or not glycosylated). PankoMab and PM-N54Q were diluted sequentially 1:3 from 3,600 to 4.9 nM in HPS-EP. The dilutions were injected at 50 μL/min. Maximal binding of each concentration was determined as response units (RU), respectively, and evaluated with GraphPad Prism using “one-site specific binding”. […] Therefore, in this experimental setting a nearly two-fold increase in affinity was detectable.

[6] = molecular target: T1, MUC1 tandem repeat peptide …; assay: antigen ELISA on Tn-glycosylated PDTR MUC1 peptide
[7] = molecular target: T1, MUC1 tandem repeat peptide …; assay: SPR (Biacore), biotinylated peptide on streptavidin chip, steady-state fit of maximal RU
Protocol: as §1

[8] = molecular target: T3, MUC1 tandem repeat peptide …; assay: antigen ELISA on TF-PDTR MUC1 peptide, purified antibody [panel Binding to TF-MUC1]
[9] = molecular target: T1, MUC1 tandem repeat peptide …; assay: antigen ELISA on Tn-PDTR MUC1 peptide, purified antibody [panel Binding to Tn-MUC1]
[10] = molecular target: T3, MUC1 tandem repeat peptide …; assay: antigen ELISA on TF-glycosylated PDTR MUC1 peptide [panel Binding to TF-MUC1 peptide]
[11] = molecular target: T1, MUC1 tandem repeat peptide …; assay: antigen ELISA on Tn-glycosylated PDTR MUC1 peptide [panel Binding to Tn-MUC1 peptide]
[12] = molecular target: T5, biotinylated TA-MUC1 peptides (Example 4b); assay: fluorescence proximity sensing (DRX2 switchSENSE), biotinylated peptide captured by streptavidin
T5 construct: also called antigen peptide
Source text: (§2) A new method to determine binding constants and affinity is the fluorescence proximity sensing using single stranded DNA (96mer) spotted on a chip and complementary DNA coupled to a ligand. In the present study streptavidin was used as a ligand to capture biotinylated TA-MUC1 peptides. […] On- and off-rates can be calculated during association and dissociation. Due to a higher sensitivity faster interactions can be monitored compared to surface plasmon resonance.
(§3) PankoMab and PM-N54Q were diluted from 300 nM in 1:9 steps to 3.67 nM in PE140 buffer and applied to the chip-bound peptides. Binding curves were evaluated by mono-exponential global fit (instrument software). Binding curves of PM and PM-N54Q are exemplarily shown in FIGS. 3A and B. Calculated affinities of PankoMab variants are shown in Table 2: […]

[13] = molecular target: T4, MUC1 tandem repeat peptide …; assay: antigen ELISA on sTF-glycosylated PDTR MUC1 peptide [panel Binding to sTF-MUC1 peptide]
[14] = molecular target: T2, MUC1 tandem repeat peptide …; assay: antigen ELISA on sTn-glycosylated PDTR MUC1 peptide [panel Binding to sTn-MUC1 peptide]
[15] = molecular target: T5, biotinylated TA-MUC1 peptides (Example …); assay: fluorescence proximity sensing (DRX, switchSENSE), biotinylated TA-MUC1 peptide captured by streptavidin; antibody at 3.7, 33.3 and 300 nM
Source text: as §2, §3

[16] = molecular target: T6, His-tagged FcγRIIIa (Glycotope GmbH) (UniProt P08637 17-208, limits assumed); assay: AlphaScreen competition, low-fucosylated antibody; His-tagged FcγRIIIa on Ni-chelate donor beads, competitor rabbit-anti-mouse coupled acceptor beads
T6 construct: also called Fcγ receptor IIIa; CD16a; not shown: His tag
T6 sequence (P08637 17-208 limits assumed): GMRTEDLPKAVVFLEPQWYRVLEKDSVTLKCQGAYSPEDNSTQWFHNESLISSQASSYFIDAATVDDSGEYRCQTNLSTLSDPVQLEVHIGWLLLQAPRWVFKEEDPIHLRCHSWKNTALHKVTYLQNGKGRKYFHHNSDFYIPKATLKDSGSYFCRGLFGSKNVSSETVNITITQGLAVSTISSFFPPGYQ
Source text: For the receptor binding assays, His-tagged FcγRIIIa (Glycotope GmbH) is captured by Ni-chelate donor beads. Anti-MUC1 antibodies and rabbit-anti-mouse coupled acceptor beads compete for binding to FcγR. In case of interaction of FcγR with rabbit-anti-mouse-bound acceptor beads, donor and acceptor beads come into close proximity which leads, upon laser excitation at 680 nm, to light emission. A maximum signal is achieved (signalₘₐₓ) without a competitor. In case of competition, where a test antibody binds to FcγR, the signalₘₐₓ is reduced in a concentration-dependent manner. Chemiluminescence was quantified by measurement at 520-620 nm (AlphaScreen® method) using an EnSpire 2300 multilabel reader (PerkinElmer). All results were expressed as the mean±standard deviation of duplicate samples. The data were evaluated and calculated using non-linear curve fitting (sigmoidal dose-response variable slope) with GraphPad Prism 5 software. As a result, a concentration dependent sigmoidal curve was obtained, which is defined by top-plateau, bottom-plateau, slope and EC₅₀.

B1: humanized antibody PankoMab N54Q (without Fab glycosylation) (antibody, human IgG1, kappa)
heavy: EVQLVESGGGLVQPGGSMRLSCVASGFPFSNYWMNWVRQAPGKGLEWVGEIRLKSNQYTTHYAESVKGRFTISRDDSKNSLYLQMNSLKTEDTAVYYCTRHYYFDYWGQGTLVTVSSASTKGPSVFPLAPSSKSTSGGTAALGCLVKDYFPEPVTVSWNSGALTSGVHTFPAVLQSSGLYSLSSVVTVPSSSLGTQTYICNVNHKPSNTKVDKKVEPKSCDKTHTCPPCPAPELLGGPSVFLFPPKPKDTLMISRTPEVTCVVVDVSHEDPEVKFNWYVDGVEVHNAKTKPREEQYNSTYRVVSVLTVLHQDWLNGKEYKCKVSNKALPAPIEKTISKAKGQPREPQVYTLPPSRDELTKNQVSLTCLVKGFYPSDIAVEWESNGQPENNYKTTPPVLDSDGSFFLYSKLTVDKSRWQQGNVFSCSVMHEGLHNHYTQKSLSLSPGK
light: DIVMTQSPLSNPVTPGEPASISCRSSKSLLHSNGITYFFWYLQKPGQSPQLLIYQMSNLASGVPDRFSGSGSGTDFTLRISRVEAEDVGVYYCAQNLELPPTFGQGTKVEIKRTVAAPSVFIFPPSDEQLKSGTASVVCLLNNFYPREAKVQWKVDNALQSGNSQESVTEQDSKDSTYSLSSTLTLSKADYEKHKVYACEVTHQGLSSPVTKSFNRGEC
notes: IgG1 kappa; Made in NM-H9D8 cells (for the FcγRIIIa assay also in NM-H9D8-E6Q12, low fucose); also called PM-N54Q; PM N54Q w/o Fab glyc
- fold higher binding compared to PankoMab-GEX® [1]: 4 fold
- fold better binding compared to PankoMab-GEX® [2]: ~7 fold
- fold better binding compared to PankoMab-GEX® [3]: 2 fold
- fold better binding compared to PankoMab-GEX® [4]: 2 fold
- fold increase in affinity compared to PankoMab-GEX® [5]: ~2 fold
- EC50 (read off the curve) [6]: ~20 ng/mL
- Kd [7]: 388 nM
- EC50 (read off the curve) [8]: ~10 ng/mL
- EC50 (read off the curve) [9]: ~10 ng/mL
- EC50 (read off the curve) [10]: ~10 ng/mL
- EC50 (read off the curve) [11]: ~10 ng/mL
- Kd [12]: 1.6 nM
- EC50 (read off the curve) [13]: ~10 ng/mL
- EC50 (read off the curve) [14]: ~100 ng/mL
- Kd [15]: 1.63 nM
- koff [15]: 0.0109 s⁻¹
- kon [15]: 6.7e+06 M⁻¹ s⁻¹
- IC50 (read off the curve) [16]: ~4000 ng/mL
